Patent US20240026037A1 (Memorial Sloan Kettering, published 2024)

T1: Human GPA33 on GPA33+ colorectal cancer cell lines (Colo 205, LS 174T, SW 1222) (human, UniProt Q99795 22-319)
T1 construct: Endogenous GPA33 on human colorectal cancer cell lines; also called surface human GPA33; GPA33+ tumor cell lines
T1 sequence: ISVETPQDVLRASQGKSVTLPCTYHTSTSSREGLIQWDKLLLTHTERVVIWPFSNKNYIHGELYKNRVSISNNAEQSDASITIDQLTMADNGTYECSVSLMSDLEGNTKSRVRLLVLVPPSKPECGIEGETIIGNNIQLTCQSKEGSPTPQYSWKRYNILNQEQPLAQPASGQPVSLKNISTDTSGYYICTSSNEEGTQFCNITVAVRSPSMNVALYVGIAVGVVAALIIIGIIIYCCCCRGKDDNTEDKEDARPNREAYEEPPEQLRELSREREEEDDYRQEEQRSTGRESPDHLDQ

T2: Human GPA33 (recombinant protein, Novoprotein) (human, UniProt Q99795 22-235)
T2 construct: Bought recombinant protein immobilized on a CM5 chip; also called GPA33 antigen; tumor antigen GPA33
T2 sequence: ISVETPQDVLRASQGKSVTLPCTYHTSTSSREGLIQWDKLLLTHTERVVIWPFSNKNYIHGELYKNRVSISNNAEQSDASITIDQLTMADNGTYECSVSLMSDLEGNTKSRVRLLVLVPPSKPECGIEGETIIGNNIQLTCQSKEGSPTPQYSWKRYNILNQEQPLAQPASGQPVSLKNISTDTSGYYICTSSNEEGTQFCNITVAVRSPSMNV

B1: G3A_VK3+VH1 (antibody, IgG1, V domains shown)
VH: EVQLVESGGGLVKPGGSLRLSCAASGFAFSTYDMSWVRQAPGKGLEWVSTISSGGSYTYYADSVKGRFTISRDNAKNSLYLQMNSLRAEDTAVYYCAPTTVVPFAYWGQGTLVTVSA
VL: DIQMTQSPSSLSTSVGDRVTITCKASQNVRTVVAWYQQKPGKAPKTLIYLASNRHSGVPSRFSGSGSGTEFTLTISNLQPEDFATYYCLQHWSYPLTFGSGTKLEVK
B2: G3A_VK7+VH3 (antibody, V domains shown)
VH: EVQLVESGGGLVKPGGSLRLSCAASGFAFSTYDMSWVRQAPGKGLEWVATISSGGSYTYYADSVKGRFTISRDSAKNSLYLQMNSLRAEDTAVYYCAPTTVVPFAYWGQGTLVTVSA
VL: DIQMTQSPSSLSASVGDRVTITCKASQNVRTVVAWYQQKPGKAPKRLIYLASNRHTGVPSRFSGSGSGTEFTLTISNVQPEDFATYYCLQHWSYPLTFGSGTKLEVK
B3: G3A_VK8+VH1 (antibody, V domains shown)
VH: EVQLVESGGGLVKPGGSLRLSCAASGFAFSTYDMSWVRQAPGKGLEWVSTISSGGSYTYYADSVKGRFTISRDNAKNSLYLQMNSLRAEDTAVYYCAPTTVVPFAYWGQGTLVTVSA
VL: DIQMTQSPSSLSASVGDRVTITCKASQNVRTVVAWYQQKPGKAPKRLIYLASNRHTGVPSRFSGSGSGTEFTLTISNLQPEDFADYYCLQHWSYPLTFGSGTKLEVK
B4: G3A_VK5+VH1 (antibody, V domains shown)
VH: EVQLVESGGGLVKPGGSLRLSCAASGFAFSTYDMSWVRQAPGKGLEWVSTISSGGSYTYYADSVKGRFTISRDNAKNSLYLQMNSLRAEDTAVYYCAPTTVVPFAYWGQGTLVTVSA
VL: DIQMTQSPSSLSASVGDRVTITCKASQNVRTVVAWYQQKPGKAPKTLIYLASNRHTGVPSRFSGSGSGTEFTLTISNLQPEDFATYYCLQHWSYPLTFGSGTKLEVK
B5: G3A_VK5+VH3 (antibody, V domains shown)
VH: EVQLVESGGGLVKPGGSLRLSCAASGFAFSTYDMSWVRQAPGKGLEWVATISSGGSYTYYADSVKGRFTISRDSAKNSLYLQMNSLRAEDTAVYYCAPTTVVPFAYWGQGTLVTVSA
VL: DIQMTQSPSSLSASVGDRVTITCKASQNVRTVVAWYQQKPGKAPKTLIYLASNRHTGVPSRFSGSGSGTEFTLTISNLQPEDFATYYCLQHWSYPLTFGSGTKLEVK
B6: G3A_VK7+VH1 (antibody, V domains shown)
VH: EVQLVESGGGLVKPGGSLRLSCAASGFAFSTYDMSWVRQAPGKGLEWVSTISSGGSYTYYADSVKGRFTISRDNAKNSLYLQMNSLRAEDTAVYYCAPTTVVPFAYWGQGTLVTVSA
VL: DIQMTQSPSSLSASVGDRVTITCKASQNVRTVVAWYQQKPGKAPKRLIYLASNRHTGVPSRFSGSGSGTEFTLTISNVQPEDFATYYCLQHWSYPLTFGSGTKLEVK
B7: G3A_VK6+VH1 (antibody, V domains shown)
VH: EVQLVESGGGLVKPGGSLRLSCAASGFAFSTYDMSWVRQAPGKGLEWVSTISSGGSYTYYADSVKGRFTISRDNAKNSLYLQMNSLRAEDTAVYYCAPTTVVPFAYWGQGTLVTVSA
VL: DIQMTQSPSSLSASVGDRVTITCKASQNVRTVVAWYQQKPGKAPKRLIYLASNRHTGVPSRFSGSGSGTEFTLTISNLQPEDFATYFCLQHWSYPLTFGSGTKLEVK
B8: G3A_VK8+VH3 (antibody, V domains shown)
VH: EVQLVESGGGLVKPGGSLRLSCAASGFAFSTYDMSWVRQAPGKGLEWVATISSGGSYTYYADSVKGRFTISRDSAKNSLYLQMNSLRAEDTAVYYCAPTTVVPFAYWGQGTLVTVSA
VL: DIQMTQSPSSLSASVGDRVTITCKASQNVRTVVAWYQQKPGKAPKRLIYLASNRHTGVPSRFSGSGSGTEFTLTISNLQPEDFADYYCLQHWSYPLTFGSGTKLEVK
B9: G3A_VK6+VH3 (antibody, V domains shown)
VH: EVQLVESGGGLVKPGGSLRLSCAASGFAFSTYDMSWVRQAPGKGLEWVATISSGGSYTYYADSVKGRFTISRDSAKNSLYLQMNSLRAEDTAVYYCAPTTVVPFAYWGQGTLVTVSA
VL: DIQMTQSPSSLSASVGDRVTITCKASQNVRTVVAWYQQKPGKAPKRLIYLASNRHTGVPSRFSGSGSGTEFTLTISNLQPEDFATYFCLQHWSYPLTFGSGTKLEVK
B10: G3A_VK3+VH3 (antibody, IgG1, V domains shown)
VH: EVQLVESGGGLVKPGGSLRLSCAASGFAFSTYDMSWVRQAPGKGLEWVATISSGGSYTYYADSVKGRFTISRDSAKNSLYLQMNSLRAEDTAVYYCAPTTVVPFAYWGQGTLVTVSA
VL: DIQMTQSPSSLSTSVGDRVTITCKASQNVRTVVAWYQQKPGKAPKTLIYLASNRHSGVPSRFSGSGSGTEFTLTISNLQPEDFATYYCLQHWSYPLTFGSGTKLEVK
B11: G3A_VK4+VH3 (antibody, IgG1, V domains shown)
VH: EVQLVESGGGLVKPGGSLRLSCAASGFAFSTYDMSWVRQAPGKGLEWVATISSGGSYTYYADSVKGRFTISRDSAKNSLYLQMNSLRAEDTAVYYCAPTTVVPFAYWGQGTLVTVSA
VL: DIQMTQSPSSLSASVGDRVTITCKASQNVRTVVAWYQQKPGKAPKTLIYLASNRHTGVPSRFSGSGSGTEFTLTISNLQPEDFATYYCLQHWSYPLTFGSGTKLEVK
B12: G3A_chimeric (antibody, V domains shown)
VH: EVKLVESGGGLVKPGGSLKLSCAASGFAFSTYDMSWVRQTPEKRLEWVATISSGGSYTYYLDSVKGRFTISRDSARNTLYLQMSSLRSEDTALYYCAPTTVVPFAYWGQGTLVTVSA
VL: DIVMTQSQKFMSTSVGDRVSITCKASQNVRTVVAWYQQKPGQSPKTLIYLASNRHTGVPDRFTGSGSGTDFTLTISNVQSEDLADYFCLQHWSYPLTFGSGTKLEVK
B13: G3A_VK7+VH2 (antibody, V domains shown)
VH: EVQLVESGGGLVKPGGSLRLSCAASGFAFSTYDMSWVRQAPGKGLEWVATISSGGSYTYYLDSVKGRFTISRDSAKNSLYLQMNSLRAEDTAVYYCAPTTVVPFAYWGQGTLVTVSA
VL: DIQMTQSPSSLSASVGDRVTITCKASQNVRTVVAWYQQKPGKAPKRLIYLASNRHTGVPSRFSGSGSGTEFTLTISNVQPEDFATYYCLQHWSYPLTFGSGTKLEVK
B14: G3A_VK6+VH2 (antibody, V domains shown)
VH: EVQLVESGGGLVKPGGSLRLSCAASGFAFSTYDMSWVRQAPGKGLEWVATISSGGSYTYYLDSVKGRFTISRDSAKNSLYLQMNSLRAEDTAVYYCAPTTVVPFAYWGQGTLVTVSA
VL: DIQMTQSPSSLSASVGDRVTITCKASQNVRTVVAWYQQKPGKAPKRLIYLASNRHTGVPSRFSGSGSGTEFTLTISNLQPEDFATYFCLQHWSYPLTFGSGTKLEVK
B15: G3A_VK8+VH2 (antibody, V domains shown)
VH: EVQLVESGGGLVKPGGSLRLSCAASGFAFSTYDMSWVRQAPGKGLEWVATISSGGSYTYYLDSVKGRFTISRDSAKNSLYLQMNSLRAEDTAVYYCAPTTVVPFAYWGQGTLVTVSA
VL: DIQMTQSPSSLSASVGDRVTITCKASQNVRTVVAWYQQKPGKAPKRLIYLASNRHTGVPSRFSGSGSGTEFTLTISNLQPEDFADYYCLQHWSYPLTFGSGTKLEVK

Assays:
[1] = target: T1, Human GPA33 on GPA33+ colorectal cancer …; experiment: cell binding to SW1222 Luc cells; IgG format
[2] = target: T1, Human GPA33 on GPA33+ colorectal cancer …; experiment: cell binding to LS174T Luc cells; IgG format
[3] = target: T2, Human GPA33 (recombinant protein, …); experiment: SPR (Biacore), binding to GPA33 protein; IgG format
Protocol: SPR analysis. Human GPA33 (Novoprotein, Summit, NJ) was immobilized on CM5 chips. Five concentrations of 2-fold serially diluted huA33 IgG1 or huA33-BsAbs (starting at 20 nM) were flowed over the chip using a Biacore™ T100 system (GE Healthcare, Chicago, IL). Binding kinetics of huA33 were measured at 25° C. and binding kinetics of huA33-BsAbs were measured at both 25° C. and 37° C. The sensorgrams were fitted with two state binding model for both to derive kinetic parameters.

Binder	EC50 [1]	EC50 [2]	Kd [3]
B1	0.338 µg/mL	0.642 µg/mL	190 pM
B2	–	0.768 µg/mL	1620 pM
B3	0.568 µg/mL	0.454 µg/mL	975 pM
B4	0.496 µg/mL	0.44 µg/mL	171 pM
B5	0.387 µg/mL	0.424 µg/mL	238 pM
B6	1.14 µg/mL	0.481 µg/mL	888 pM
B7	0.831 µg/mL	0.402 µg/mL	884 pM
B8	0.792 µg/mL	0.433 µg/mL	1890 pM
B9	0.614 µg/mL	0.847 µg/mL	1450 pM
B10	0.391 µg/mL	0.398 µg/mL	241 pM
B11	1.03 µg/mL	0.279 µg/mL	236 pM
B12	1 µg/mL	0.248 µg/mL	196 pM
B13	0.795 µg/mL	0.576 µg/mL	1750 pM
B14	1.07 µg/mL	–	1740 pM
B15	0.993 µg/mL	1.09 µg/mL	1850 pM
